Data on 22 sequences can be found in the DeepSol protein solubility set.

The nature of this data set: soluble on expression in E. coli; label from the status in PepcDB or PDB records.
As for “MTCEVLITEFVAHPSDITDAYARYQQRIQDAPLHIVCSSPRPLPSKGSAYAQWSLRCESAYAQKSHPELMQCYELRSLVTYEETPDPDDSLIEKFFFEDCAEPTVYSASVNRLDIELGAVDTRCTDELCIVTPVFLAHSEHAEVLQSLYEVLVSNADPVAYAASIAECDDISQANLIGLLWVRDAQRTMSNVGDQIYAMGKTAWTGWILVEASKQEELQLQLSELIDATNAVAYLTATPW”, the “soluble on expression in E. coli” value is recorded as “soluble”. Turning to “MKTEEELLNRMQAYCARTEHCRSEVAAKLRQAGTDELMIERLLQRLVEDRFIDEDRFARAYARDKYRFNGWGPKRIALELVKRHIPDSIIGSTLLDLEEGEDKIEDNLPRLLERKLRSIKDTDDRGRLHRLVRWAVGRGFEYEQVMREASRLLRKGYEEDS”, the “soluble on expression in E. coli” value is reported as “not soluble”. Under “MGSDKIHHHHHHMDKVIEMKGITKVFPGTIANDNVNFELTRGETHVLLGENGAGKTTLMNILYGLYHPEKGQIIVNGKSVQFSGPNDAIKSGIGMVHQHFMLVNNFTVAENIVLGMEPKNGIRVDMGKAINNVKELSDKYGFAIEPKAIIEDISVGQQQKVEILKALYRGADVLILDEPTAVLTPQEIDELGDIIENLKKEGKSVILITHKLKEVMKMSDRVTIIRRGKVTGTVNTKDTSIDELAELMVGRKVNLTIAKKESKAGKEVLRVEELKVKDHRDVLVVKGINLVVNSGEILGIAGVDGNGQSEFIEALTGLKKVESGNVILNGKNISGKSAKYITNSGVGHIPEDRHKRGLVLKYSLYENSILGMHHRKPFSRMFNINYKAVRKHCKKLIEEFDIRTPNDEVNAAALSGGNQQKLVVAREISRNPDLLIASQPTRGLDVGAIEYIHKRIVEERDKGKAVLLVSLELDEILALSDRIAVMYDGKIVDVLERKDADEKKLGILMAGGNLDKKESVNTVEER” stands “not soluble”.

With “MSLNTQLAIIRSKGKEHICYREEECFVDVSYPMVTFTKGEDDFEIVKCDHPSMEETFLYQESRLSIVIEMYHNGWPALSLKDPVTHEIYTVLTVNLEDKAAFSLPDRAFVDINNNPDAMEFLLSNKLAEDTGYRRQSGWVSYPMVTLNLPTFYRLDPHAFSAILNIREGHHHHHH”, the “soluble on expression in E. coli” value is “soluble”.

On to “MKISIRHRYIAKIPALEVTTEEQKNEALPLIVYYHGWQSAKELSLTQARKLAHEGFRVILPDAMNHGERKTEPISTIPSITFWSSIQYNLIEFPVIIHHFHKLGLIKENWIGVGGVSMGGITTSALMTQHPEIQAAACLMGTPYPARYIQRVIQRAKEFAIFVPKDLPLLLSWVHQYDLSQTPERLQERPMLFWHGTEDEKIPYEDMADFEQLVSGKTYARNTQFITEIGERHLVKGETMDLVVDFFKEASKTLEK”, for which the “soluble on expression in E. coli” value is on record as “not soluble”.

On to “MLLENFYKIIHIKEREDGKQEIEIELNPGHVLYQGHFPGQPVVPGVCTLQIIKESAEQIASQPLQYVQIASSKFLSAINPLETPLLQLFIRLEKTEEHLFKLQAEGICNGKEFIKLKAVLMASKYQLEHHHHHH”, for which the “soluble on expression in E. coli” value is “soluble”. Under “IQFTESCSMDQSAKEPLINYLDMEYFGTISIGSPPQNFTVIFDTGSSNLWVPSVYCTSPACKTHSRFQPSQSSTYSQPGQSFSIQYGTGSLSGIIGADQVSVEGLTVVGQQFGESVTEPGQTFVDAEFDGILGLGYPSLAVGGVTPVFDNMMAQNLVDLPMFSVYMSSNPEGGAGSELIFGGYDHSHFSGSLNWVPVTKQAYWQIALDNIQVGGTVMFCSEGCQAIVDTGTSLITGPSDKIKQLQNAIGAAPVDGEYAVECANLNVMPDVTFTINGVPYTLSPTAYTLLDFVDGMQFCSSGFQGLDIHPPAGPLWILGDVFIRQFYSVFDRGNNRVGLAPAVPWSHPQFEK” stands “soluble”; under “MGHHHHHHSHMFYLAAAVSDFYVPVSEMPEHKIQSSGGPLQITMKMVPKLLSPLVKDWAPKAFIISFKLETDPAIVINRARKALEIYQHQVVVANILESRQSFVFIVTKDSETKLLLSEEEIEKGVEIEEKIVDNLQSRHTAFIGDRN”, “not soluble”.

For the sequence “MGSSHHHHHHSSGLVPRGSHMASMTGGQQMGRGSMTTHLQAKATLHNGVEMPWFGLGVFQVEEGSELVNAVKTAIVHGYRSIDTAAIYGNEAGVGEGIREGIEEAGISREDLFITSKVWNADLGYEETLAAFETSLSKLGLDYLDLYLIHWPVEGKYKEAWRALETLYKEGRIKAIGVSNFQIHHLEDLMTAAEIKPMINQVEFHPRLTQKELIRYCQNQGIQMEAWSPLMQGQLLDHPVLADIAQTYNKSVAQIILRWDLQHGIITIPKSTKEHRIKENASVFDFELTQDDMNRIDALNENLRVGPDPDNFDF”, the “soluble on expression in E. coli” value is reported as “soluble”. Regarding “MKSACSIITASIVLYKSKPDIIRDVITSFFSDTVTKKKLILIDNSPTDSLRVLQEERPEDIQYFFNNRNIGFGSAHNIGIREAARFNPSYHLILNPDVQFGPEVVPTLASYMDENPDIGLLMPQVYYPNGELQHLCKLFPRPWDVMLRRFVPYRSYRERNNERFELRNWSYDTIQDIPSLSGCFMFARMDILREVGGFDERFFMYAEDLDLCRRIGQVSRTVFFPKVSIMHTYAKGSYHLEHHHHHH”, the “soluble on expression in E. coli” value was “soluble”. As for “MSLRIAVVGATGRIGSKLTRTLLGAGHQVKALSRGGAALEALVEAGAEPFLGSFDTGAGALDTFFQDVEAAFLMVKTDWNNIEGHYPAVAQRFVDALRGSPVKLAVSLSAMGSDVDGKTGHFELFHHLDQRLNELNDIDMVHLRAAWFMENTLAWTASVAKYGRLAWFYEPDLKMPWVATDDIAGLAAKELTNPTGDHRVIRETGSEDLTMNELAAMIGREIGKPVEYRFIDRGRKEIENEYLARFGTPEHWLDDSRSADALNHGVVRFQGGDDVRPVLPTTMEAFLKTIWTPRYLEALASEEGHHHHHH”, the entry is “soluble”; as for “MGHHHHHHSHMYKRCKRGQDKCMMRPLSNPLTEAYNVQNLYQCLNCDDYHLCNGSLNCDPLVDREGIVCTVTGKYIQCNVRESPMCGAACLDVDIHPEDNTDCILRALFGDIVDIINKLDDIAEIKDKILAGDSLNEHIKKKIECTFPMCANIINCNSQGYSILCSMFVHIIMSIYANKTIYGHMLFKCTRNKKYDTIAKKIREKWMYLE”, “not soluble”; as for “MGHHHHHHSHMSSKHDYTNPPWNAKVPVQRAMQWMPISQKAGAAWGVDPQLITAIIAIESGGNPNAVSKSNAIGLMQLKASTSGRDVYRRMGWSGEPTTSELKNPERNISMGAAYLNILETGPLAGIEDPKVLQYALVVSYANGAGALLRTFSSDRKKAISKINDLDADEFLEHVARNHPAPQAPRYIYKLEQALDAM”, “soluble”. For “MGSDKIHHHHHHMSKWLNVGKIVNTHGVRGEVRVLSTTDFEDDRFSSGKTLYVMRPNQNERVAVTVASHRKHKNFDLLCFEGYPSINDVEAFKGGRLQVPIEDRPELGEGEFFYHEIIGCSVVTIAGEELGKVKEILSPGANDVWVVQCRRGGKDLLIPYIEQVVKQVDLEKQQITIEPMEGLLE”, the “soluble on expression in E. coli” value is “not soluble”.

Regarding “MKTYEVGALLEAANQRDTKKVKEILQDTTYQVDEVDTEGNTPLNIAVHNNDIEIAKALIDRGADINLQNSISDSPYLYAGAQGRTEILAYMLKHATPDLNKHNRYGGNALIPAAEKGHIDNVKLLLEDGREDIDFQNDFGYTALIEAVGLREGNQLYQDIVKLLMENGADQSIKDNSGRTAMDYANQKGYTEISKILAQYN”, the “soluble on expression in E. coli” value is recorded as “soluble”. Turning to “MGGSHHHHHHGMASALANEEDDPVVQEIDVYLAKSLAEKLYLFQYPVRPASMTYDDIPHLSAKIKPKQQKVELEMAIDTLNPNYCRSKGEQIALNVDGACADETSTYSSKLMDKQTFCSSQTTSNTSRYAAALYRQGELHLTPLHGILQLRPSFSYLDKADAKHREREAANEAGDSSQDEAEDDVKQITVRFSRPESEQARQRRVQSYEFLQKKHAEEPWVHLHYYGLRDSRSEHERQYLLCPGSSGVENTELVKSPSEYLMMLMPPSQEEEKDKPVAPSNVLSMAQLRTLPLADQIKILMKNVKVMPFANLMSLLGPSIDSVAVLRGIQKVAMLVQGNWVVKSDILYPKDSSSPHSGVPAEVLCRGRDFVMWKFTQSRWVVRKEVATVTKLCAEDVKDFLEHMAVVRINKGWEFILPYDGEFIKKHPDVVQRQHMLWTGIQAKLEKVYNLVKETMPKKPDAQSGPAGLVCGDQRIQVAKTKAQQNHALLERELQRRKEQLRVPAVPPGVRIKEEPVSEEGEEDEEQEAEEEPMDTSPSGLHSKLANGLPLGRAAGTDSFNGHPPQGCASTPVARELKAFVEATFQRQFVLTLSELKRLFNLHLASLPPGHTLFSGISDRMLQDTVLAAGCKQILVPFPPQTAASPDEQKVFALWESGDMSDQDCCVSYGGMWYLKGTVQS”, the “soluble on expression in E. coli” value is on record as “not soluble”.

In the case of “GPLGSLGRRWGPNVQRLACIKKHLRSQGITMDELPLIGGCELDLACFFRLINEMGGMQQVTDLKKWNKLADMLRIPKTAQDRLAKLQEAYCQYLLSYDSLSPEEHRRLEKEVLMEKEILEK”, the “soluble on expression in E. coli” value is given as “soluble”. Regarding “MAHHHHHHMADWQGWYQRMLDVHNRNVSLRCRICDLQRLDGNGVQFVDMQTERRLRILAQHRVGMGVLKLDADKYEDQADNVTFGTTKLSELLADARKAQLGEEYWPSVELKVRKPSGQSKAHYSLIDNERIEKRSRELYEKYRDAKKRSLFVTPMETWLEVKGMQVRKSVDNADEDGYTLDALQDMMDGDDEDKV”, the “soluble on expression in E. coli” value is on record as “not soluble”. On to “AEFKHVFVCVQDRPPGHPQGSCAQRGSREVFQAFMEKIQTDPQLFMTTVITPTGSMNACMMGPVVVVYPDGVWYGQVKPEDVDEIVEKHLKGGEPVERLVISKGKPPGMF”, for which the “soluble on expression in E. coli” value is “soluble”. On to “MAILITGGAGYIGSHTCVELLNNNYKIIVVDNLSNSSIESLNRVKEITGKQFEFYKENVLNREKMNEIFLENNIEAVIHFAGFKAVGESTTTPLAYYYNNIISAIVLCDVMQKHNVKNFIFSSSATVYGIPKTLPITEEFPLSVTNPYGQTKLMIEQIMRDVAKADDEWSIALLRYFNPFGAHQSGRIGEDPNGIPNNLMPYVTQVAVGKLKELNIFGNDYPTKDGTGVRDYIHVVDLAKGHVKALEKVLKTKGIEAYNLGTGKGYSVLEMVKAFEKVSGKKIPYKVIGRRPGDVAICFADVSKAKRELGWEAEYGLEEMCVDSWRWQVNNKNGYQMI”, for which the “soluble on expression in E. coli” value was “not soluble”. With “SQTVHFQGNPVTVANSIPQAGSKAQTFTLVAKDLSDVTLGQFAGKRKVLNIFPSIDTGVSAASVRKFNQLATEIDNTVVLCISADLPFAQSRFCGAEGLNNVITLSTFRNAEFLQAYGVAIADGPLKGLAARAVVVIDENDNVIFSQLVDEITTEPDYEAALAVLKA”, the “soluble on expression in E. coli” value is “soluble”. Turning to “MDSENSSSHSISSPQMFQNTHNNSAMEDNLLSRPMNNESLQMIIGYLRRNGLTETEELLTREAGPVLRVEGSNGLPPEEAISVEFDTFVQHANDCTDVVQAEFSQLLFPIFAHSYIALIEKHAATARIFFNRFKIFIPECFSEFVYQLSLIEDAMTLRANEHVHILRENKFLVRLSRPTLKHLESIQTRVIGVKNIIAKHICIENADEVSTNRTTIETQMGGILGVTSKSDKRHKMMFSVLKDELMQNIEKRKTKGKDWKDMGKKMQTHCPQADRIPLPPISEHLREERRNWLRDVGKMAIISAESPVSICMYTTVNAPIGVASCDFTDDSSLIAMGLSDSSIVMNAMDPMNKMKKLRDMEFLDKIDIETADNVQSQMFDLQGSTTSVRYTGHGGPVFSVNFSPDRRLLISSAGDRTVRLWSMETQRNAVIYRTPAVAQFCSRGYYFATASADKTAAMWSTDRMHPLRIFADPYGDVGCIDYHPNCNYIAGGSDDRYVRVWDVCSGTRVRIFSGHKASIIAVKFSPCGRYIVSLDAIGNLMIWDLAYQRLVAAEITEQAGTKGSITFSRDGGVFAVSHGNSSIQLYSLDTLIGTVLAAGQNDSYIEPKVNLDGFNIGSYATKETAVIGLHFTRRNLLLGFGCFGQ”, the “soluble on expression in E. coli” value was “soluble”.
